This is an account of results in paper PMC3155546 (PLoS ONE, 2011).

This assay has as its target T1, GST-TPPP1–219 (human, UniProt O94811 1-219).
T1 construct: also called GST-TPPP(FL); full-length TPPP
Briefly: co-IP. Particulars: both partners purified.

T1 sequence (O94811 whole entry): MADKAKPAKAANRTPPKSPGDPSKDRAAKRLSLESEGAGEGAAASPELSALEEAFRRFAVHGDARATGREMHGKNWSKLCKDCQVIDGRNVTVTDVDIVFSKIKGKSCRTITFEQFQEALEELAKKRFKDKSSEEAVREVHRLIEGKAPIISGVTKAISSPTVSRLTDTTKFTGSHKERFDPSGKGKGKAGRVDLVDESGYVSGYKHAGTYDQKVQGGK

As for KTNMKHMAGAAAAGAVVGGLG (domain or fragment) [GST-PrP106–126], the binding result was “binds”.
